Assays:
[1] = molecular target: GST-ABI-1Δ (N-terminal GST fusion to the product of the abi-1(tm494) allele) (C. elegans) (UniProt Q10929); assay: pull-down; GST, GST-ABI or GST-ABIΔ on glutathione beads incubated with 25 μl of a 100 μl 35S-labelled in vitro transcription/translation reaction; 2 h at 4 °C in PBB2 (25 mM HEPES pH 7.6, 150 mM NaCl, 5 mM MgCl2, 0.1 mM EDTA, 0.1% Tween-20, 0.25% BSA); washes with 300 and 250 mM NaCl; SDS-PAGE, autoradiography, phosphorimager quantitation
[2] = molecular target: T1, GST-ABI-1 (glutathione-S-transferase fused to the N terminus of full-length C. elegans ABI-1) (C. elegans, UniProt Q10929 1-469); assay: as above; conditions: one partner purified
T1 construct: ABI-1, C. elegans homolog of the Abi proteins; full-length abi-1 from cDNA yk1204a12, bp 47-1,456; Cloned in pDEST15 (Gateway). bp 47-1,456 is 1,410 bp, i.e. 469 codons and a stop if the stop codon is included; not shown: GST, N-terminal, kept
T1 sequence (looked up): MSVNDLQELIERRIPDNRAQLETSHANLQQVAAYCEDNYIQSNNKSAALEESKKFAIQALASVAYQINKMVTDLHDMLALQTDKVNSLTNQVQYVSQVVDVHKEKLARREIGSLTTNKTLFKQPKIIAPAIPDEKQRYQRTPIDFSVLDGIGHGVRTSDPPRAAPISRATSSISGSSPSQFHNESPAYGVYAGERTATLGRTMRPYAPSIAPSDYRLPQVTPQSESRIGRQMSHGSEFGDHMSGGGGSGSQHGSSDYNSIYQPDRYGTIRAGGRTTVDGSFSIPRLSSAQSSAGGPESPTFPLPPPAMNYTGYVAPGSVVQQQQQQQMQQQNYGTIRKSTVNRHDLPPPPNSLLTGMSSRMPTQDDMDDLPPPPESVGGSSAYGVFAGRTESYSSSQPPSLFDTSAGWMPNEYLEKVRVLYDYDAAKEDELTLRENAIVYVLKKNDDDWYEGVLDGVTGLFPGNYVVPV

B1: ABL-1(112–611), N-terminal fragment of C. elegans ABL-1 (domain or fragment, UniProt P03949 112-611, looked up)
chain: SSSSSAPLFVALYDFHGVGEEQLSLRKGDQVRILGYNKNNEWCEARLYSTRKNDASNQRRLGEIGWVPSNFIAPYNSLDKYTWYHGKISRSDSEAILGSGITGSFLVRESETSIGQYTISVRHDGRVFHYRINVDNTEKMFITQEVKFRTLGELVHHHSVHADGLICLLMYPASKKDKGRGLFSLSPNAPDEWELDRSEIIMHNKLGGGQYGDVYEGYWKRHDCTIAVKALKEDAMPLHEFLAEAAIMKDLHHKNLVRLLGVCTHEAPFYIITEFMCNGNLLEYLRRTDKSLLPPIILVQMASQIASGMSYLEARHFIHRDLAARNCLVSEHNIVKIADFGLARFMKEDTYTAHAGAKFPIKWTAPEGLAFNTFSSKSDVWAFGVLLWEIATYGMAPYPGVELSNVYGLLENGFRMDGPQGCPPSVYRLMLQCWNWSPSDRPRFRDIHFNLENLISSNSLNDEVQKQLKKNNDKKLESDKRRSNVRERSDSKSRHSSHHD
modifications: labeled with 35S in vitro
notes: contains the SH3, SH2 and tyrosine kinase domains; Cloned in pDEST14 (Gateway) for expression in vitro; also called N-terminal half of ABL-1; source: in vitro translated (TNT T7 Quick Coupled Transcription/Translation system, Promega)
- fold less ABL-1(112–611) bound than by ABI-1 [1]: 3 fold
- fold binding in the ABI-1 lane over the GST lane (phosphorimager) [2]: 8 fold

From article PMC2672617, “Abl Kinase Inhibits the Engulfment of Apopotic Cells in Caenorhabditis elegans” (PLoS Biology, 2009)
